From patent US6569419B2, “Methods for promoting production of myelin by Schwann cells” (ZymoGenetics, Inc., priority 2000, dated 2003)

B1: human Zcyto7: Human Zcyto7 polypeptide (SEQ ID NO: 2), identified by its homology to Interleukin-17; used at 100 ng/ml (protein)
chain: MDWPHNLLFLLTISIFLGLGQPRSPKSKRKGQGRPGPLAPGPHQVPLDLVSRMKPYARMEEYERNIEEMVAQLRNSSELAQRKCEVNLQLWMSNKRSLSPWGYSINHDPSRIPVDLPEARCLCLGCVNPFTMQEDRSMVSVPVFSQVPVRRRLCPPPPRTGPCRQRAVMETIAVGCTCIF
B2: Zcyto7: Zcyto7 polypeptide; species and solution not stated in Example 6 (protein)
chain: B1 chain

How the values were obtained:
[1] = test system: primary rat Schwann cells; experiment: Induction of protein zero expression in Schwann cells (Western blot); assay type: cell-based; conditions: 100 ng/ml, N2 medium + 1 μM progesterone
Description: Primary Schwann cells were prepared as described above using 1-day old CD rat neonates. Schwann cells were grown in DMEM, 10% fetal bovine serum (FBS), plus bovine pituitary extract (PEX) at 20 μg/ml and Forskolin at 2μM. The cells were weaned down to a low serum medium (“Li” medium with 1% FBS added to it). Li medium was comprised of DMEM/F12, 10 μg/ml tranferrin, 5 μg/ml insulin, 2 nM progesterone, 2 μM Forskolin, 20 μg/ml PEX, and 20 ng/ml Heregulin-beta-1 (R & D Systems).
The Schwann cells were grown to confluency in the low serum growth medium on poly-L-lysine-coated 10 cm tissue culture dishes. The cell medium was changed to N2 medium+1 μM progesterone with either Forskolin (Calbiochem) (10 μM and 25 μM) or 100 ng/ml of human Zcyto7. Control medium was Schwann cells in N2+1 μM progesterone for the whole time. Cells were harvested and placed in lysis buffer (125 mM Tris HCl, pH 7.0, 15% sucrose, 4% SDS, 10 mM EDTA, plus added Roche Complete-EDTA-free, protease inhibitor cocktail).
Protein concentrations of cell lysates were determined by Pierce BCA protein assay (Pierce Chemical Co., Rockford, Ill.). Forty micrograms of each cell lysate sample was run on a 4-12% Tris-Glycine gel (Novex) at 125 V for 1 hour 30 minutes, and transferred onto a PVDF membrane in a Hoeffer unit a 550 mAmps for 1 hour. Mouse monoclonal antibody to protein zero was used at 1:1000 dilution (1 μg/am final concentration) to probe the blot. A Vectastain biotin/streptavidin-HRP 2nd antibody system was used for amplication. The blot was developed with Pierce SuperSignal West Pico chemiluminescent substrate and scanned on a Boehringer-Mannheim Lumi-Imager.

[2] = test system: mRNA that encodes myelin basic protein and protein zero; experiment: Hybridization studies: mRNA levels that encode myelin basic protein and protein zero; assay type: cell-based
Description: The expression of myelin basic protein and protein zero was also determined by measuring the mRNA levels that encode myelin basic protein and protein zero.

Molecule | Relative percentage of P zero protein (media control = 100%) [1] [%] | mRNA that encodes for myelin basic protein [2] | mRNA that encodes for protein zero [2]
B1 | 173 | – | –
B2 | – | upregulated | upregulated
